The supplement of paper PMC11780869

Tested on: Bacillus subtilis
Assay: cleaved RNA product abundance (RNA/gDNA barcode ratio) relative to median wild-type variant (ratio to wild type); higher = more accumulation of the downstream cleavage product
Outline: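 In LB at 37°C, B. subtilis cultures went from OD600 0.0003 to 0.3. Their chromosomes held barcoded reporter mRNAs, truncated aprE or tetM, with RNase Y cleavage-site windows mutagenized via oligos at a 9% error rate. Cleaved RNA, chosen by gel, was reverse transcribed and barcode-sequenced alongside genomic DNA barcodes with UMI collapsing, giving a per-construct RNA:gDNA ratio scaled to the median construct with the unmutated site. This scaled ratio is termed cleaved product abundance.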

[1] = experiment (reporter, strain, medium): exp 2b: truncated aprE reporter, strain BJT200, cleavage site: cggR-gapA (positions -7 to +36 mutated)
[2] = experiment (reporter, strain, medium): exp 4a: truncated aprE reporter, strain BJT201 with 2% xylose (RNase J1 expressed), cleavage site: cggR-gapA (positions -7 to +36 mutated)
[3] = experiment (reporter, strain, medium): exp 8a: truncated aprE reporter, strain BJT201 with 2% xylose (RNase J1 expressed), cleavage site: glnRA (positions -5 to +31 mutated)

Sequence | cleaved RNA product abundance [1] | cleaved RNA product abundance [2] | cleaved RNA product abundance [3]
ACAGACGAAGGAGCCGCAAAGAAGTTATTAAGGGATGAATAATCCCTCAATATAAATATCTCTCACTATTTAAAG | 1.28 | 1.23 | 
ACAGACGAAGGAGCCGCAAAGAAGTTATTAAGGGATAAAGAATCCCTCAATATAAATATCTCTCACTTATTTAAA |  | 0.629 | 
CGACATGTCCCGCTTCTTTCATTAATCCGTTAGCAACTGTTTTTCTAGATACATTTACCTTTTAAGAGGAGGAAT |  |  | 0.378
CGACATGTCCCGCTTCTTTCATTAATCTGATAGCAACTGTTTTGCTATATACATTTACCTTTTAAGAGGAGGAAT |  |  | 0.81
CGACATGTCCCGCTTCTTTCATTATTCCGTTAGCAACTGTTTTGCTATATACGTTTACCTTTTAAGAGGAGGAAT |  |  | 0.645
ACAGACGAAGGAGCCGCGAAGAAGTTATTAAGGGATGAATAATCCCTCAAAATAAATATCTCTCACTTATTTAAA |  | 0.319 | 
ACAGACGAAGGAGCCGCAAAGAAGTTATTATGGGATGAATAACCCCTCAATATAAATATCTCTCACTTATTTAAA |  | 0.194 | 
ACAGACGAAGGAGCCGCAAAGAAGTTATTAAGGGATGAATAATCTCTCAACATAAATATCTCTCACTTATTTAAA |  | 0.156 | 
ACAGACGAAGGAGCCGCAAAGAAGTTATTTAGGGATGAATAATCGCTCAATATAAATATCTCTCACTTATTTAAA |  | 0.0995 | 
ACAGACGAAGGAGCCGCAAACAAGTTATTAAGGGATGAATAATTCCTCAATATAAATATCTCTCACTTATTTAAA |  | 0.422 | 
CGACATGTCCCGCTTCTTTCATTAATCCGTTAGCAACTGTTCTGCAATATACATTTACCTTTTAAGAGGAGGAAT |  |  | 0.103
ACAGACGAAGGAGCCGCTAAGAATTTATTAAGGGATGAATAATCCCTCAATATAAATATCTCTCACTTATTTAAA |  | 0.468 | 
CGACATGTCCCGCTTCTTTCATTAATCCGTTAGCAACTGTTTTGCTATATACATCTACCTTTTAAGAGGAGGAAT |  |  | 0.867
ACAGACGAAGGAGCCGCAAAGAAGTTATTAAGGGATGAATAAACCCTCAATGTAAATATCTCTCACTTATTTAAA |  | 0.19 | 
ACAGACGAAGGAGCCGCAAAGAAGTTATTAATGAATGAATAAACCCTCAATATAAATATCTCTCACTTATTTAAA |  | 0.133 | 
ACAGACGAAGGAGCCGCAAAGAAGTTATTAAGGGATGAATAATACGTCAATATAAATATCTCTCACTTATTTAAA | 0.0926 | 0.0816 | 
ACAGACGAAGGAGCCGCAAAGAAGTTATTAATGGATGAATAATCCCTCAATAAAAATATCTCTCACTTATTTAAA | 0.136 | 0.108 | 
CGACATGTCCCGCTTCTTTCATTAATCCGTTAGCAAATGTTTTGCTTTATACATTTACCTTTTAAGAGGAGGAAT |  |  | 0.298
ACAGACGAAGGAGCCGCAAAGAAGTCATTAAGTGATGAATAATCCCTCAATATAAATATCTCTCACTTATTTAAA |  | 0.0976 | 
ACAGACGAAGGAGCCGCAAAGAAGTTATTAAGGGATGACTAATCCCACAATATAAATATCTCTCACTTATTTAAA | 0.157 | 0.197 | 

Sequence | cleaved RNA product abundance [1] | cleaved RNA product abundance [2] | cleaved RNA product abundance [3]
ACAGACGAAGGAGCCGCAAAGAAGTTATTAAGGGATGAATAAACCCTCAATATAAATGTCTCTCACTTATTTAAA | 0.292 | 0.39 | 
ACAGACGAAGGAGCCGCAAAGAAGTTATTAAGGGCTGAATAATCCCACAATATAAATATCTCTCACTTATTTAAA |  | 0.0873 | 
CGACATGTCCCGCTTCTTTCATTAATCCGTTAGCAACTGTTTTTCTCTATACATTTACCTTTTAAGAGGAGGAAT |  |  | 0.337
ACAGACGAAGGAGCCGCAAAGAAGTTATTAAGCGATGAATAATCCCTCAATAGAAATATCTCTCACTTATTTAAA | 0.0778 | 0.0613 | 
ACAGACGAAGGAGCCGCAAACAAGTTATTAAGGGATGAATAATCCCTCAATATAAATAACTCTCACTTATTTAAA | 0.576 |  | 
ACAGACGAAGGAGCCGCAAAGAAGTTATAAAGGGATAAATAATCCCTCAATATAAATATCTCTCACTTATTTAAA | 0.316 | 0.358 | 
ACAGACGAAGGAGCCGCAAAGAAGTTATAAAGGGAAGAATAATCCCTCAATATAAATATCTCTCACTTATTTAAA | 0.174 | 0.322 | 
ACAGACGAAGGAGCCGCAAAGAAGTTATTAAGCGATTAATAATTCCTCAATATAAATATCTCTCACTTATTTAAA |  | 0.0664 | 
ACAGACGAAGGAGCCGCAAAGAAGATATTAAGGGATGAATAAGCCCTCAATATAAATATCTCTCACTTATTTAAA |  | 0.432 | 
ACAGACGAAGGAGCCGCAAAGAAGTTATTCAGGAATGAATAATCCCTCAATATAAATATCTCTCACTTATTTAAA | 0.132 | 0.129 | 
ACAGACGAAGGAGCCGCAAAGAACTTACTAAGGGATGAATAATCCCTCAATATAAATATCTCTCACTTATTTAAA |  | 0.237 | 
CGACATGTCCCGCTTCTTTCATTAATCCGTTAGCAACTGTTTTGTTAAATACATTTACCTTTTAAGAGGAGGAAT |  |  | 0.414
CGACATGTCCCGCTTCTTTCATTAATCCGTTAGCAACTGTTTTACTATATACATGTACCTTTTAAGAGGAGGAAT |  |  | 0.471
ACAGACGAAGGAGCCGCAAAGAAGTTATTAAGGGATGAATAATCCATCGATATAAATATCTCTCACTTATTTAAA |  | 0.112 | 
CGACATGTCCCGCTTCTTTCATTAATCCGTTAGCAACTGTTTTGCTATTTACATATACCTTTTAAGAGGAGGAAT |  |  | 0.317
ACAGACGAAGGAGCCGCAAAGAACTTATTAAGGGATGAATAATCCCTCAGTATAAATATCTCTCACTTATTTAAA | 0.128 | 0.309 | 
ACAGACGAAGGAGCCGCAAACAAGTTATTAAGGGCTGAATAATCCCTCAATATAAATATCTCTCACTTATTTAAA |  | 0.471 | 
ACAGACGAAGGAGCCGCAAAGAAGTTATTAAGGGACGAATAATCCCTCCATATAAATATCTCTCACTTATTTAAA |  | 0.255 | 
CGACATGTCCCGCTTCTTTCATTAATCCGTTAGCAACCGTTTTGCTATATACATTTACCTTTTAAGAGGAGGAAT |  |  | 0.617
ACAGACGAAGGAGCCGCAAAGAAGTTATTAAGGTATGAATAATCCCTCAATATAAAAATCTCTCACTTATTTAAA | 0.107 | 0.153 | 

Sequence | cleaved RNA product abundance [1] | cleaved RNA product abundance [2] | cleaved RNA product abundance [3]
CGACATGTCCCGCTTCTTTCATTAATTCGTTACCAACTGTTTTGCTATATACATTTACCTTTTAAGAGGAGGAAT |  |  | 0.231
ACAGACGAAGGAGCCGCAAAGATGTTATTAAGGCATGAATAATCCCTCAATATAAATATCTCTCACTTATTTAAA | 0.108 | 0.104 | 
ACAGACGAAGGAGCCGCAAAGAAGTTATTATGGGATCAATAATCCCTCAATATAAATATCTCTCACTTATTTAAA | 0.23 |  | 
ACAGACGAAGGAGCCGCAAAGATGTTATTAAGGAATGAATAATCCCTCAATATAAATATCTCTCACTTATTTAAA | 0.102 | 0.145 | 
ACAGACGAAGGAGCCGCAAAGAAGTTATTAAGGGATGTATAATCCCTCAGTATAAATATCTCTCACTTATTTAAA | 0.218 | 0.237 | 
ACAGACGAAGGAGCCGCAAAAAAGTTATTAAGGGATGAGTAATCCCTCAATATAAATATCTCTCACTTATTTAAA | 0.481 | 0.415 | 
ACAGACGAAGGAGCCGCGAAGTAGTTATTAAGGGATGAATAATCCCTCAATATAAATATCTCTCACTTATTTAAA |  | 1.29 | 
ACAGACGAAGGAGCCGCAAAGAAGTTATTAAGGGATGAATAATCCCTCAATATAAATTACTCTCACTTATTTAAA |  | 0.951 | 
ACAGACGAAGGAGCCGCAAAGAAGTTATTACGGGATGAATAATCCCTCAATATAAATCTCTCTCACTTATTTAAA |  | 0.368 | 
CGACATGTCCCGCTTCTTTCATTAATCCGTTAGCAACAGTTTTGCTATATACATTTACTTTTTAAGAGGAGGAAT |  |  | 1.18
CGACATGTCCCGCTTCTTTCATTAATCCGTTAGCAATCGTTTTGCTATATACATTTACCTTTTAAGAGGAGGAAT |  |  | 1.11
ACAGACGAAGGAGCCGCAAATAAGTTATTTAGGGATGAATAATCCCTCAATATAAATATCTCTCACTTATTTAAA | 0.993 | 0.766 | 
CGACATGTCCCGCTTCTTTCATTAATCCGTTAGCAACTGTTTTGCTATATACATTTACCGTTTAAGAGGAGGAAT |  |  | 0.948
ACAGACGAAGGAGCCGCCAAGAAGTTATTAAGGGATGAATAATCCTTCAATATAAATATCTCTCACTTATTTAAA | 0.518 | 0.531 | 
ACAGACGAAGGAGCCGCAACAAAGTTATTAAGGGATGAATAATCCCTCAATATAAATATCTCTCACTTATTTAAA |  | 0.8 | 
CGACATGTCCCGCTTCTTTCATTAATCCGTAAGCAACTGTTTTGCTATATACTTTTACCTTTTAAGAGGAGGAAT |  |  | 0.307
ACAGACGAAGGAGCCGCAAAAAAGTTATTAAGGGATGAATATTCCCTCAATATAAATATCTCTCACTTATTTAAA | 0.665 | 0.566 | 
ACAGACGAAGGAGCCGCAAAGAAGTGATTAAGGGATAAATAATCCCTCAATATAAATATCTCTCACTTATTTAAA |  | 0.246 | 
CGACATGTCCCGCTTCTTTCATTAATCCGTTCGCAACTGTTTTGCTATAAACATTTACCTTTTAAGAGGAGGAAT |  |  | 0.122
CGACATGTCCCGCTTCTTTCATTAATCCGTTAGCAACTGTTTTGATATATAAATTTACCTTTTAAGAGGAGGAAT |  |  | 0.397
